Measured values reported in article doi:10.1101/2025.11.06.687013.
Starred links: 1 amine or outer side, 2 acyl side, 3 side chain; linkers in the order of their positions; H or OH if unused. Non-standard residues stand in square brackets, D forms with d. No end group written: not given here. βAsp = O=C(O)[C@H](CC(=O)[*:2])N[*:1]

Target: H-2K^b (mouse (endogenous in RMA-S))
Assay: flow cytometry on cells

fold decrease of H-2Kb display against ca3: > 100 fold
Binder: I[βAsp]FDFPKL [ca3_(isoasp)]
